Reference: US20060014712A1 (CeMines, Inc., published 2006)
Read-outs that look alike come from different tables or passages of the source.

B1: STAT3-int1M (peptide)
peptide: TTGGSSPQGLEAKRPKKRKVRRRKMQQLEQMLTALDQMRRSIVSELAGLLS
B2: Scr-int1M (peptide)
peptide: TTGGSSPQGLEAKRPKKRKVRRRQLMLEPYALDMSRIRVLSESLGLATQSG

Columns and labels:
Assay in all cases: cell-based or functional assay
MITF [1] = molecular target: T1, MITF (Homo sapiens (Human), UniProt O75030-9)
MITF [2] = molecular target: T1, MITF; remark: listed apart in the source
STAT3 [3] = molecular target: T2, STAT3 (Homo sapiens (Human), UniProt P40763)
SOX10 [4] = molecular target: T3, SOX10 (Homo sapiens (Human), UniProt P56693)
STAT3 [5] = molecular target: T2, STAT3; remark: listed apart in the source
SOX10 [6] = molecular target: T3, SOX10; remark: listed apart in the source

| Binder | Apoptosis 7 d/% in SK-MEL-28 (MITF [1]) [%] | Apoptosis 7 d/% in SK-MEL-28 (SOX10 [4]) [%] | Apoptosis 7 d/% in SK-MEL-28 (STAT3 [5]) [%] | Apoptosis 7 d/% in SK-MEL-28 (SOX10 [6]) [%] | other results |
| --- | --- | --- | --- | --- | --- |
| TTGGSSPQGLEAKRPKKRKVRRRFNINDRIKELGTLIPKSNDPDMRWN [MITF-int1M] | 20 |  |  |  |  |
| RPKKRKVRRRQLMLEPYALDMSRIRVLSESLGLATQSG [Scr-int1] |  | 0 |  |  | Apoptosis 7 d/% in SK-MEL-28 (MITF [2]): 0%; Apoptosis 7 d/% in SK-MEL-28 (STAT3 [3]): 0% |
| B1 |  |  | 12 |  |  |
| RPKKRKVRRRVKRPMNAFMVWAQAARRKLADQY [SOX10-int1] |  | 55 |  |  |  |
| TTGGSSPQGLEAKRPKKRKVRRRVKRPMNAFMVWAQAARRKLADQY [SOX10-int1M] |  |  |  | 32 |  |
| B2 | 0 |  | 0 | 0 |  |
